The values below come from patent US20080193964A1, “Compositions and methods for regulation of calcium-dependent signaling in brain” (priority 2002, published 2008).

The subject of assay [1] is DARPP-21 phosphorylation. The settings on record: treatment of mice; cited from earlier work.
Assay [2] deals with T1, calmodulin (Rattus norvegicus, UniProt P0DP29).
T1 construct: host or cells: yeast strain EGY48
As to the kind of experiment: Yeast two-hybrid protein-protein binding assay. To be noted: yeast strain EGY48; FIG. 2. Here is the method:
Protein-protein binding assays were performed in a yeast two-hybrid system using the DupLexA system (Origene Technologies, Rockville, Md.) in yeast strain EGY48. To generate a fusion protein of LexA and DARPP-21, DARPP-21 cDNA was subcloned into EcoRI-XhoI sites of pEG202 bait vector. Prey vector contained oligo-dT primed rat brain library (Origene Technologies, Rockville, Md.) attached to the B42 acid blob domain and governed by a gal-1 promoter.
Yeast were sequentially transformed with the bait, pSH18-34 lacZ-harboring prey cDNA library-containing plasmids using the lithium acetate protocol. Efficiency of transformation was estimated to be 10^6 with a library complexity of 4×10^6 individual clones. Positive clones appeared 3 to 7 days after transformation. Bait-prey interaction was assessed by intensity of growth on a (gal)(-his, -trp, -ura, -leu) medium. Specificity of the interaction was verified by X-gal staining and mating assay (Origene Technologies, Rockville, Md.).
To confirm calmodulin-DARPP-21 interactions and compare calmodulin binding to DARPP-21 mutants, EGY48 yeast cells were transformed with the bait, prey and lacZ reporter plasmids and plated onto (glu)(-his, -trp, -ura) plates. Four days later, selected colonies were transferred into a liquid (+raf)(-his, -trp, -ura) medium and grown overnight at 30 C with vigorous shaking. […]

Assay [3] has as its target T2, calmodulin (Bos taurus, UniProt P62157).
T2 construct: purchased Amersham Pharmacia Biotech
As to the kind of experiment: Affinity chromatography using calmodulin-Sepharose. The settings on record: 0.5 mM CaCl2 buffer versus 1 mM EGTA buffer; FIG. 5. Type of assay: binding. As to the method: DARPP-21 (0.5 ml of 0.1 mg/ml) was applied to 0.5 ml of 1 mg/ml calmodulin-Sepharose (Amersham Pharmacia Biotech, Piscataway, N.J.) in buffer B (100 mM NaCl, 20 mM Tris pH 7.5, 1 mM MgCl2, 0.5 mM CaCl2, 1 mM DTT) or buffer C containing 1 mM EGTA instead of 0.5 mM CaCl2. Beads were washed with several volumes of buffer D containing 300 mM NaCl and 20 mM Tris pH 7.5 and bound proteins were eluted with 10 mM EGTA/20 mM Tris pH 7.5.

For assay [4], the target named is CaMKI. As to the kind of experiment: In vitro inhibition of CaMKI kinase activity. Type of assay: biochemical. Here is the method:
(§1) For preparations of phosphorylated DARPP-21, the protein was phosphorylated in vitro using [γ-^32P]ATP with the catalytic subunit of PKA as described (Caporaso et al. 2000. Neuropharmacology 39:1636-1643). The stoichiometry of phosphorylation was determined to be 95% for DARPP-21.
(§2) DARPP-21 was phosphorylated as described in Section 6.1. In vitro inhibition studies on the kinase and phosphatase activities of CaMKI and calcineurin, respectively, were performed according to standard techniques in the art.

Assay [5] addresses calcineurin. Description: In vitro inhibition of calcineurin phosphatase activity. It is filed as biochemical. As to the method: as §1, §2
Setting [6] is: same concentration as phosphorylated DARPP-21.

Regarding `CN[C@@H](C)Cc1ccccc1` [methamphetamine], the “DARPP-21 phosphorylation in vivo” value in assay [1] was “increased”.

B1: Ser^55 to alanine in DARPP-21: DARPP-21 mutant with Ala substitution for Ser^55, LexA fusion in yeast (protein, UniProt Q9UBL0 2-812, looked up, variant S55A)
cAMP-regulated phosphoprotein …: SEQGDLNQAIAEEGGTEQETATPENGIVKSESLDEEEKLELQRRLEAQNQERRKAKSGAGKGKLTRSLAVCEESSARPGGESLQDQESIHLQLSSFSSLQEEDKSRKDDSEREKEKDKNKDKTSEKPKIRMLSKDCSQEYTDSTGIDLHEFLINTLKNNSRDRMILLKMEQEIIDFIADNNNHYKKFPQMSSYQRMLVHRVAAYFGLDHNVDQTGKSVIINKTSSTRIPEQRFCEHLKDEKGEESQKRFILKRDNSSIDKEDNQQNRMHPFRDDRRSKSIEEREEEYQRVRERIFAHDSVCSQESLFVENSRLLEDSNICNETYKKRQLFRGNRDGSGRTSGSRQSSSENELKWSDHQRAWSSTDSDSSNRNLKPAMTKTASFGGITVLTRGDSTSSTRSTGKLSKAGSESSSSAGSSGSLSRTHPPLQSTPLVSGVAAGSPGCVPYPENGIGGQVAPSSTSYILLPLEAATGIPPGSILLNPHTGQPFVNPDGTPAIYNPPTSQQPLRSAMVGQSQQQPPQQQPSPQPQQQVQPPQPQMAGPLVTQRDDVATQFGQMTLSRQSSGETPEPPSGPVYPSSLMPQPAQQPSYVIASTGQQLPTGGFSGSGPPISQQVLQPPPSPQGFVQQPPPAQMPVYYYPSGQYPTSTTQQYRPMAPVQYNAQRSQQMPQAAQQAGYQPVLSGQQGFQGLIGVQQPPQSQNVINNQQGTPVQSVMVSYPTMSSYQVPMTQGSQGLPQQSYQQPIMLPNQAGQGSLPATGMPVYCNVTPPTPQNNLRLIGPHCPSSTVPVMSASCRTNCASMSNAGWQVKF
modifications: LexA fusion
notes: DARPP-21 mutant with Ala substitution for Ser^55, LexA fusion in yeast
Regarding B1, in assay [2], the “interaction with calmodulin in yeast” value is recorded as “completely inhibited the interaction with calmodulin”.

B2: DARPP-21: neuronal 21 kDa dopamine- and cAMP-regulated phosphoprotein (protein, UniProt Q9UBL0 2-812, looked up)
cAMP-regulated phosphoprotein …: SEQGDLNQAIAEEGGTEQETATPENGIVKSESLDEEEKLELQRRLEAQNQERRKSKSGAGKGKLTRSLAVCEESSARPGGESLQDQESIHLQLSSFSSLQEEDKSRKDDSEREKEKDKNKDKTSEKPKIRMLSKDCSQEYTDSTGIDLHEFLINTLKNNSRDRMILLKMEQEIIDFIADNNNHYKKFPQMSSYQRMLVHRVAAYFGLDHNVDQTGKSVIINKTSSTRIPEQRFCEHLKDEKGEESQKRFILKRDNSSIDKEDNQQNRMHPFRDDRRSKSIEEREEEYQRVRERIFAHDSVCSQESLFVENSRLLEDSNICNETYKKRQLFRGNRDGSGRTSGSRQSSSENELKWSDHQRAWSSTDSDSSNRNLKPAMTKTASFGGITVLTRGDSTSSTRSTGKLSKAGSESSSSAGSSGSLSRTHPPLQSTPLVSGVAAGSPGCVPYPENGIGGQVAPSSTSYILLPLEAATGIPPGSILLNPHTGQPFVNPDGTPAIYNPPTSQQPLRSAMVGQSQQQPPQQQPSPQPQQQVQPPQPQMAGPLVTQRDDVATQFGQMTLSRQSSGETPEPPSGPVYPSSLMPQPAQQPSYVIASTGQQLPTGGFSGSGPPISQQVLQPPPSPQGFVQQPPPAQMPVYYYPSGQYPTSTTQQYRPMAPVQYNAQRSQQMPQAAQQAGYQPVLSGQQGFQGLIGVQQPPQSQNVINNQQGTPVQSVMVSYPTMSSYQVPMTQGSQGLPQQSYQQPIMLPNQAGQGSLPATGMPVYCNVTPPTPQNNLRLIGPHCPSSTVPVMSASCRTNCASMSNAGWQVKF
In the case of B2, in assay [3], the “binding to calmodulin-Sepharose” value is reported as “detected only in the calcium-equilibrated column”.

B3: Phosphorylated DARPP-21: DARPP-21 phosphorylated in vitro with the catalytic subunit of PKA (protein, UniProt Q9UBL0 2-812, looked up)
cAMP-regulated phosphoprotein …: SEQGDLNQAIAEEGGTEQETATPENGIVKSESLDEEEKLELQRRLEAQNQERRKSKSGAGKGKLTRSLAVCEESSARPGGESLQDQESIHLQLSSFSSLQEEDKSRKDDSEREKEKDKNKDKTSEKPKIRMLSKDCSQEYTDSTGIDLHEFLINTLKNNSRDRMILLKMEQEIIDFIADNNNHYKKFPQMSSYQRMLVHRVAAYFGLDHNVDQTGKSVIINKTSSTRIPEQRFCEHLKDEKGEESQKRFILKRDNSSIDKEDNQQNRMHPFRDDRRSKSIEEREEEYQRVRERIFAHDSVCSQESLFVENSRLLEDSNICNETYKKRQLFRGNRDGSGRTSGSRQSSSENELKWSDHQRAWSSTDSDSSNRNLKPAMTKTASFGGITVLTRGDSTSSTRSTGKLSKAGSESSSSAGSSGSLSRTHPPLQSTPLVSGVAAGSPGCVPYPENGIGGQVAPSSTSYILLPLEAATGIPPGSILLNPHTGQPFVNPDGTPAIYNPPTSQQPLRSAMVGQSQQQPPQQQPSPQPQQQVQPPQPQMAGPLVTQRDDVATQFGQMTLSRQSSGETPEPPSGPVYPSSLMPQPAQQPSYVIASTGQQLPTGGFSGSGPPISQQVLQPPPSPQGFVQQPPPAQMPVYYYPSGQYPTSTTQQYRPMAPVQYNAQRSQQMPQAAQQAGYQPVLSGQQGFQGLIGVQQPPQSQNVINNQQGTPVQSVMVSYPTMSSYQVPMTQGSQGLPQQSYQQPIMLPNQAGQGSLPATGMPVYCNVTPPTPQNNLRLIGPHCPSSTVPVMSASCRTNCASMSNAGWQVKF
modifications: phospho-Ser55
notes: DARPP-21 phosphorylated in vitro with the catalytic subunit of PKA
In general, IC50 refers to the concentration at which inhibition is half-maximal. As for B3, the IC50 is 1200 nM in assay [4] (in vitro, FIG. 6) and 1000 nM in assay [5] (in vitro, FIG. 7).

B4: unphosphorylated DARPP-21: neuronal 21 kDa dopamine- and cAMP-regulated phosphoprotein, not phosphorylated (protein, UniProt Q9UBL0 2-812, looked up)
cAMP-regulated phosphoprotein …: SEQGDLNQAIAEEGGTEQETATPENGIVKSESLDEEEKLELQRRLEAQNQERRKSKSGAGKGKLTRSLAVCEESSARPGGESLQDQESIHLQLSSFSSLQEEDKSRKDDSEREKEKDKNKDKTSEKPKIRMLSKDCSQEYTDSTGIDLHEFLINTLKNNSRDRMILLKMEQEIIDFIADNNNHYKKFPQMSSYQRMLVHRVAAYFGLDHNVDQTGKSVIINKTSSTRIPEQRFCEHLKDEKGEESQKRFILKRDNSSIDKEDNQQNRMHPFRDDRRSKSIEEREEEYQRVRERIFAHDSVCSQESLFVENSRLLEDSNICNETYKKRQLFRGNRDGSGRTSGSRQSSSENELKWSDHQRAWSSTDSDSSNRNLKPAMTKTASFGGITVLTRGDSTSSTRSTGKLSKAGSESSSSAGSSGSLSRTHPPLQSTPLVSGVAAGSPGCVPYPENGIGGQVAPSSTSYILLPLEAATGIPPGSILLNPHTGQPFVNPDGTPAIYNPPTSQQPLRSAMVGQSQQQPPQQQPSPQPQQQVQPPQPQMAGPLVTQRDDVATQFGQMTLSRQSSGETPEPPSGPVYPSSLMPQPAQQPSYVIASTGQQLPTGGFSGSGPPISQQVLQPPPSPQGFVQQPPPAQMPVYYYPSGQYPTSTTQQYRPMAPVQYNAQRSQQMPQAAQQAGYQPVLSGQQGFQGLIGVQQPPQSQNVINNQQGTPVQSVMVSYPTMSSYQVPMTQGSQGLPQQSYQQPIMLPNQAGQGSLPATGMPVYCNVTPPTPQNNLRLIGPHCPSSTVPVMSASCRTNCASMSNAGWQVKF
For B4, in assay [4] (setting [6]), the “effect on CaMKI activity” value is given as “no effect”. Also, the “effect on calcineurin activity” value in assay [5] (setting [6]) was “no effect”.
